Patent publication US20170173114A1, “METHODS AND COMPOSITIONS FOR INDUCTION OF UCP1 EXPRESSION” (Joslin Diabetes Center, Inc., priority 2014, published 2017)

Tests used:
[1] = tested on: RIP140 (NRIP1); assay: RIP140 mRNA expression in brown and white preadipocytes; type: cell-based; details: 200 ng/mL, three or seven days
Procedure: (§1) Total RNA was isolated with QIAzol lysis reagent (Qiagen, Valencia, Calif.) and purified by RNeasy Mini columns (Qiagen) following the manufacture's instructions. cDNA was prepared from total RNA using the Advantage RT-PCR kit (BD Biosciences, Palo Alto, Calif.) according to manufacturer's instructions. Diluted cDNA was used in a PCR reaction with SYBR Green Master Mix (Applied Biosystems, Foster City, Calif.) and primers specifically designed for detection of the gene of interest. PCR reactions were run in duplicate for each sample and quantitated in the ABI Sequence Detection System (Applied Biosystems). Data were expressed as arbitrary units after normalization to levels of expression of internal controls for each sample. Sequences of primers for specific genes are each obtained from the published literature or designed using publically available gene sequence databases. Unless otherwise indicated, gene expression data described in the examples below was obtained using QPCR.
RIP140 directs DNA methylation and interacts with nuclear receptors to silence UCP1 expression and suppress mitochondrial biogenesis in white adipocytes (Kiskinis E. et al., EMBO J. 26:4831-4840, 2007; Powelka A. M. et al., J. Clin. Invest. 116:125-136, 2006; Wang H. et al., Mol. Cell. Biol. 28:2187-2200, 2008). […]

[2] = tested on: PTGS2 (COX2); assay: PTGS2 mRNA / COX2 protein expression in WT-1 brown preadipocytes; type: cell-based, murine
Procedure: as §1
Cells were harvested in lysis buffer (50 mM HEPES, 137 mM NaCl, 1 mM MgCl2, 1 mM CaCl2, 10 mM Na2P2O7, 10 mM NaF, 2 mM EDTA, 10% glycerol, 1% Igepal CA-630, 2 mM vanadate, 10 μg/ml of leupeptin, 10 μg/ml of aprotinin, 2 mM phenylmethylsulfonyl fluoride; pH 7.4). After lysis, lysates were clarified by centrifugation at 12,000×g for 20 min at 4° C., the amount of protein in the supernatants was determined by the Bradford Protein Assay (Bio-Rad Laboratories, Hercules, Calif.). Proteins were directly solubilized in Laemmli sample buffer. Equal amounts of lysates were separated by sodium dodecyl sulfate-polyacrylamide gel electrophoresis and transferred to Immobolin-P membranes. Membranes were blocked overnight at 4° C. and incubated with the indicated antibody for 2 hours at room temperature. Specifically bound primary antibodies were detected with peroxidase-coupled secondary antibody and enhanced chemiluminescence (ECL, Amersham Biosciences, Piscataway, N.J.).
To determine if FGF4, FGF5, FGF6, FGF10, FGF16, FGF17, FGF18 or FGF20 induced either UCP1 mRNA or PTGS2 mRNA expression, murine brown preadipocyte WT-1 cells (Tseng et al., Nat. Cell. Biol. (2005) 7(6):601-611) were grown in growth media (DMEM-high glucose+10% FBS) supplemented with FGF4, FGF5, FGF6, FGF10, FGF16, FGF17, FGF18, FGF20 or buffer (control) in combination with insulin (20 nM) and triidothyronine (T3, 1 nM) for three days. All FGFs were used at a dosage of 200 ng/mL. mRNA was isolated and UCP1 and PTGS2 gene expression levels were evaluated by quantitative reverse transcription polymerase chain reaction (Q-RT-PCR) analysis. All experiments were performed triplicate and the data are presented as mean+/−SEM.
To determine if FGF1 or FGF10 induce UCP1 mRNA expression or PTGS2 mRNA expression, murine brown preadipocyte WT-1 cells (Tseng et al., Nat. Cell. Biol. (2005) 7(6):601-611) were grown in growth media (DMEM-high glucose+10% FBS) supplemented with FGF1, FGF10 or vehicle (control) in combination with insulin (20 nM) and triidothyronine (T3, 1 nM) for three days. FGF1 and FGF10 were used at a dosage of 50 ng/mL, 100 ng/mL or 300 ng/mL. mRNA was isolated and UCP1 and PTGS2 expression levels were evaluated by quantitative reverse transcription polymerase chain reaction (Q-RT-PCR) analysis. All experiments were performed triplicate and the data are presented as mean+/−SEM.
To test the role of specific prostaglandins (PGs) in activating UCP1 expression, WT-1 brown adipocytes were pretreated with PGE2, PGI2 and FGF6 for 24 hours. mRNA expression levels of UCP1, PTGS2, LDHA, PDK1 and PKM2 were then measured.

[3] = tested on: UCP1 and PTGS2; assay: UCP1 and PTGS2 mRNA in WT-1 cells differentiated with BMP7; type: cell-based, murine; details: 200 mg/mL FGF6 for 32 hours after 8 days BMP7; vs vehicle
Procedure: WT-1 preadipocyte cells were exposed to 3.3 nM BMP7 in growth media (DMEM-high glucose, 10% FBS, supplemented with 20 nM insulin and 1 nM triiodothyronine (T3)) for 8 days in order to induce differentiation of the adipocytes (Tseng Y. H. et al., (2008) Nature 454(7207):1000-1004). Following day 8 of treatment, the cells were exposed to […] of FGF6 protein, or vehicle control, in growth media for 32 hours. Cells were then collected, and UCP1 and PTGS2 mRNA expression levels were determined according to the quantitative RT-PCR assay described above.

B1: FGF6: fibroblast growth factor 6; recombinant human FGF from R&D Systems, or mouse FGF6 cDNA overexpressed by lentiviral vector (protein)
chain: KRQRRLYCNVGIGFHLQVLPDGRISGTHEENPYSLLEISTVERGVVSLFGVRSALFVAMNSKGRLYATPSFQEECKFRETLLPNNYNAYESDLYQGTYIALSKYGRVKRGSKVSPIMTVTHFLPRI
- reduction of RIP140 mRNA expression [1]: 50-80%
- PTGS2 mRNA expression relative to the control ([2]; 200 ng/mL with insulin and T3, three days): increased
- PTGS2 mRNA expression ([2]; 50-300 ng/mL, three days): induced
- COX2 protein expression, Western blot ([2]; 50-300 ng/mL, three days, dose-dependent): increased
- PTGS2 mRNA expression ([2]; WT-1, 24 hours, vs vehicle): significantly induced
- PTGS2 levels in cells differentiated using BMP7 [3]: increased
- UCP1 expression in cells differentiated using BMP7 [3]: induced UCP1 expression
